Series [1] concerns the target Recombinant SSL1 of S. aureus ocular isolate 295.236 (allele type 2) (Staphylococcus aureus isolate 295.236).
Series [2] has as its target Recombinant SSL1 of S. aureus strain MW2 (allele type 1) (Staphylococcus aureus strain MW2).
For series [3], the target named is Recombinant SSL1 of S. aureus strain Newman (allele type 3) with a C-terminal 6-His tag (Staphylococcus aureus strain Newman).
Series [4] deals with the molecule itself. Kind of series: gelatin zymography with SDS compared with reduced, denaturing SDS-PAGE.

Turning to “Recombinant SSL1 of S. aureus ocular isolate 295.236 (allele type 2) (from UniProt A0A0H3KAV3 31-226) (natural protein)”, the stoichiometry N in series [1] was found to be 2.
Consider “Recombinant SSL1 of S. aureus strain MW2 (allele type 1) (from UniProt A0A0H3KAV3 31-226) (natural protein)”, for which the stoichiometry N in series [2] is 2.
As for “Recombinant SSL1 of S. aureus strain Newman (allele type 3) with a C-terminal 6-His tag (from UniProt A0A0H3KAV3 31-226) (natural protein)”, in series [3], the stoichiometry N came to 2.

B1: Staphylococcus aureus superantigen-like protein SSL1 of strain Newman, native secreted protein (natural protein)
chain: KAEVKQQSESELKHYYNKPILERKNVTGFKYTDEGKHYLEVTVGQQHSRITLLGSDKDKFKDGENSNIDVFILREGDSRQATNYSIGGVTKSNSVQYIDYINTPILEIKKDNEDVLKDFYYISKEDISLKELDYRLRERAIKQHGLYSNGLKQGQITITMNDGTTHTIDLSQKLEKERMGESIDGTKINKILVEMK
notes: also called the toxin; the protease
Turning to B1, in series [4], the “stoichiometry N” value was 2.

For the origin of these results see article PMC6471365 (Pathogens, 2019).
